# In the supplement of paper PMC12042874:
# ± gives the uncertainty stated by the source.
# Test: amyloid nucleation score (Sup35N fusion, yeast selection) (log enrichment); library NNK3; higher = more nucleation; inactive = no reads after selection
# How it was run: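 Using DiMSum, nucleation scores were taken as the log enrichment of output over input reads, centred on the mode score of non-aggregating sequences. The input and output reads came from Illumina sequencing of plasmid inserts, with sequences under 100 input reads excluded. The yeast were psi-negative, expressed Sup35N fused to peptides of 20 random codons, were induced with 100 μM copper sulfate for 24 hours, and were grown 7 days at 30°C on medium lacking adenine and uracil.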
row,Substance,amyloid nucleation score
1,KFSTTFVTCSIVLVRILLDL,inactive
2,CYVFIEDLTDGMSCRMLFSH,inactive
3,VRSARRQAGELEGFYCLYQV,inactive
4,CMFKGHAELLRWVL,inactive
5,RVEIRIIS,inactive
6,CSIWLCNKNVQIAN,inactive
7,KLTHY,inactive
8,SNKECLLGIGWFASYKVIPT,inactive
9,YFNYSLFISVCS,inactive
10,VVHSGWKSLDNLPHLRDVVT,inactive
11,TGVVMCLGIEMINDYIPVLN,inactive
12,RWPLMMTFSATIVGYTVVWA,inactive
13,RSQRKTFHWKFWRPSCSDQW,0.868 ± 0.12
14,YMKDALNLRPLRSSTALFLS,inactive
15,MSFRIVFLPC,inactive
16,DFNSVVLPNGV,inactive
17,CFRPPFTFRYFALARGKAAD,inactive
18,GLYSDNSVYTLQMFIEGAHH,0.4 ± 0.3
19,SSLAGMQEDC,inactive
20,NVWDMEEERWNLKAILTMWA,inactive
21,APHLFLARYLYVCLYCENEW,1.25 ± 0.11
22,FIILQFVGFLHNTGFWYQLG,0.217 ± 0.25
23,VEHFNGHTRTVGCLFKRDLR,inactive

row,Substance,amyloid nucleation score
1,CRMDGIKGSEIRNADAWAIY,inactive
2,REYSEA,inactive
3,CYSNTLELNDARNCFFNWVR,inactive
4,RTMLTQFPCYWVSIHSVLVS,inactive
5,WYNNYFRQVPSCVKDGRSHP,inactive
6,MMFARKFAIKSTKRIMVGRT,inactive
7,IYPFSDMLSFWGMGKCELLR,-0.361 ± 1.1
8,LNGRYSLLWR,inactive
9,RLANKFSMTSGT,inactive
10,IMIYSQPKGEASCFGCFRLG,0.702 ± 0.17
11,IIYPLMKAWISDMLMVISIS,inactive
12,VCVVWNIVDQAYNMW,0.253 ± 0.34
13,WLMRARGYGNVRSPVVFGKL,inactive
14,TCIGPGRFFFMMFYV,inactive
15,HRFSVWSEYCILIFRLQHRP,inactive
16,WPFRKKYGIVEIRDEMYAG,inactive
17,RMWLD,inactive
18,RSNYRGYFK,-0.498 ± 1.4
19,TGYHGHTPFSYDQYEFHLRV,inactive
20,VVIVLLKFR,inactive
21,DDSPFLGRFK,inactive
22,YGIAMTQTIVSCSEIESKLR,inactive
23,NRINLDSSPLKGYFLINTIT,inactive

row,Substance,amyloid nucleation score
1,NKSWWKYVPIDDGELYMRAV,inactive
2,SVSVLV,inactive
3,FYVNPITEGMA,inactive
4,TINIQCALGMNQT,1.17 ± 0.11
5,SKRARVKWSTQPHFVRYLLE,inactive
6,TRASRRKSHSTSMDLPIRRH,inactive
7,EVAWVYEYQL,inactive
8,CCGEHRVGQWV,0.157 ± 0.27
9,SVNKAWHSRLIVVLYNRLTG,0.082 ± 0.18
10,KCSNLVAFVI,inactive
11,LYFNVSTTIAIRIRSYSYRV,-0.299 ± 0.62
12,VLRQDISDDQSEAPEMNPHR,inactive
13,ENYLSPTSKMTMIWGCILWW,inactive
14,GCFVNN,inactive
15,FTMASLRIKDIFWLLTNLTW,inactive
16,YSACSSGVPRCLDMSRATVE,-0.055 ± 1.1
17,NWDMAFNYNLTAFSPKGTNS,inactive
18,YKQCN,inactive
19,RGKFHRVA,inactive
20,RLHLAPTNCREVNWPTLWLA,-0.565 ± 1.8
21,ARLSLWS,0.733 ± 0.31
22,ARDNDLLNCMMLGLFSRLAF,inactive
23,QCSDVLYY,inactive

row,Substance,amyloid nucleation score
1,HGMTIMLGVGWYLWDGSTEG,0.657 ± 0.16
2,LYSCMFIMLFQNYFLPIGVA,inactive
3,LESINTLLNYVYYFNLVN,inactive
4,ASVRTYVDTNHYNLAEILRL,inactive
5,EKLVTCKDYFNRASTVTSLG,inactive
6,LIWQGCV,inactive
7,PIAFQRKSSCIKSRESGSVR,inactive
8,VCIVVGARGGGYVLRTPLRG,inactive
9,VCNSYCMPRPRILQSQGGMG,inactive
10,GTGMCCLIVSLVFLPLCDIA,inactive
11,MTSIQEF,inactive
12,LQLRSLF,inactive
13,ACLCNNCLSLNPTWSCFLCL,2.41 ± 0.087
14,YLYVRYTFRYWVVNYRYNNG,inactive
15,FLVPTLHYYLGRWQKKPMLY,inactive
16,AGKHFAHSGLFLVCNYTSRT,inactive
17,FLIPYKRQIAQRRYVSLE,inactive
18,SYVVSQPFSHRYWESLTMAL,inactive
19,NPIIKKSKLLKGHLSTCPMV,inactive
20,VLIYDVCCALNLCCGFRTFG,1.77 ± 0.081
21,RDVVCRRMRTRVLSSHAPPR,inactive
22,LRMVTHMSVYDRNHLSW,inactive
23,IHYPKCVAGLCSRSLCTAVV,inactive

row,Substance,amyloid nucleation score
1,NRRKLYKGSCGLTFRGSRER,inactive
2,RSNVVAQMYQKMLLSRYCTI,0.354 ± 0.27
3,SLYRGYLFGCGQFDNIVYEL,inactive
4,HVLSVQTLYLFCKGLKESGT,0.809 ± 0.16
5,CTRHLQMFVNIF,2.23 ± 0.056
6,FIAFWCVNLRTL,inactive
7,VFKSSGPAVTSYWY,inactive
8,GGDTPDDRVSNHCLYRHHHV,inactive
9,QINSSLDMMRHTFCSEGYAV,inactive
10,KQKWIPYSLCFFTPVR,inactive
11,HRAPMSHPVCLMIKWLLWVL,inactive
12,VRLSKHMLVIDRGLKQLVIY,inactive
13,LQYFTYLGQCLKRETHHFLR,inactive
14,SMRLVAWYW,inactive
15,ILNMAVGALWGLMIWSVMLF,inactive
16,LDVQATIAFCVVVYASLYKR,inactive
17,FSCSNSLTMVFVEDFNHATY,inactive
18,MSLIRYKLG,inactive
19,SGMLIVLRSWLDRDSICEGR,inactive
20,LDRSVIIVSLILS,1.87 ± 0.072
21,CWAPHPKDRKPVRGNYSVHN,inactive
22,MFWEGVTNSEMATKLHDKCI,inactive
23,YYVVVQADVGNI,inactive

row,Substance,amyloid nucleation score
1,WGQMR,0.456 ± 0.37
2,LNNTQFL,inactive
3,FGSSMYRMKPVDC,inactive
4,LSAADSMCGKRCLRGTP,inactive
5,VDIVRVSCEALSLATDCQFL,inactive
6,TLFEMYNVTFIMKNGLQES,1.96 ± 0.062
7,HVCHKTYLSLKLHKLDFFYS,0.391 ± 0.17
8,YISFVFDRYNKSYGTARICK,-0.506 ± 0.82
9,YFMVRWYCAGLDILCGLQEK,inactive
10,RDRLKVLLLIFHSRDDTRTK,inactive
11,SMWYASFTYESYLCLFKESR,inactive
12,FWTCTSSPVLMRWRRSGFNV,inactive
13,TRWRLSVYERVGARRDTPLC,inactive
14,EFQNFLVSFYEMYLQSPK,inactive
15,RSVVVLT,inactive
16,WPSYSRLQTDFRGTGFFFRG,inactive
17,ILRNRNDIQNAYCRNKY,inactive
18,MGLGGHIVLSGCSWFMYHIG,inactive
19,GQWLYGWTRYVGPTI,inactive
20,SLKEVSFWSASRDDGGDRMQ,inactive
21,DTRFWTARLLYFFI,inactive
22,RGVNKRKADVTRGCYSVVLN,inactive
23,AFGYKFGSANEAVRMLLSLV,inactive

row,Substance,amyloid nucleation score
1,YLNPAFELFKRMSNRFFVLA,-1.02 ± 1.9
2,VCHLWSLTVYGAVFQHLNFM,inactive
3,NFSMMPTMLRRVWIGMCSSM,inactive
4,RAPRVVIGCSMYMGMFSELE,0.772 ± 0.14
5,SVVRVCSSCIVDYRMCESK,0.927 ± 0.14
6,RRTPLWSPMVRNLSYALLAG,inactive
7,PETWDTRCGV,0.03 ± 0.88
8,IFGFDYIAPFFCVTFGIRRV,inactive
9,INTNAYSGLEIYRYSTIAKG,inactive
10,IKAGTEVVFRTSDLFMTMLQ,inactive
11,VDYKLFNFDGVCITTVFVHY,2.24 ± 0.095
12,ILNTVIGSQLDELPVAAFSS,inactive
13,CDLDLLHGWCGNKRMGSCGR,inactive
14,YCKFDS,0.705 ± 0.12
15,ALPPSVF,inactive
16,DPTVVGWEYMVSRFCLSRFT,inactive
17,YNDFCN,0.194 ± 0.27
18,YFILIYWSQCSMWYYVFKYG,inactive
19,HLYDKSMNVGSRSARAELSM,inactive
20,FTSGTMVFTRLFRSNQQWWS,1.53 ± 0.13
